Measured values: paper PMC7664366 (Redox Biology, 2020)

Molecular target: His-tagged human Rac1 recombinant protein (human, UniProt P63000 1-192)
Assay: MALDI MS, linear mode acquisition

| binding result | Binder |
| --- | --- |
| binds | HRKKRRQRRRQFPGEYIPTVF [NipR2 (nitration inhibitory peptide for the Rho GTPases 2)] |
| binds | HRKKRRQRRRQFPGEFIPTVF [NipR2F (phenylalanine-substituted control peptide)] |
